Test results: publication PMC6019379, “RecA-like domain 2 of DNA-dependent ATPase A domain, a SWI2/SNF2 protein, mediates conformational integrity and ATP hydrolysis” (Bioscience Reports, 2018)
Residue numbers refer to the chain shown, from its start.

Experiments:
Assay in all cases: intrinsic tryptophan fluorescence titration; no ATP; Fluorescence titration (ex 295 nm, em 340 nm), one-site saturation fit; buffer, salt, pH and temperature not given in the material. Wild-type ADAAD Kd values are cited from ref 24 and not listed
Conditions in all cases: protein: recombinant; tags: His (Ni-NTA, pET-14b); hairpin
[1] = target: T1, ADAAD D591H (Bos taurus (bovine), UniProt Q9TTA5 221-940, D811H)
T1 sequence: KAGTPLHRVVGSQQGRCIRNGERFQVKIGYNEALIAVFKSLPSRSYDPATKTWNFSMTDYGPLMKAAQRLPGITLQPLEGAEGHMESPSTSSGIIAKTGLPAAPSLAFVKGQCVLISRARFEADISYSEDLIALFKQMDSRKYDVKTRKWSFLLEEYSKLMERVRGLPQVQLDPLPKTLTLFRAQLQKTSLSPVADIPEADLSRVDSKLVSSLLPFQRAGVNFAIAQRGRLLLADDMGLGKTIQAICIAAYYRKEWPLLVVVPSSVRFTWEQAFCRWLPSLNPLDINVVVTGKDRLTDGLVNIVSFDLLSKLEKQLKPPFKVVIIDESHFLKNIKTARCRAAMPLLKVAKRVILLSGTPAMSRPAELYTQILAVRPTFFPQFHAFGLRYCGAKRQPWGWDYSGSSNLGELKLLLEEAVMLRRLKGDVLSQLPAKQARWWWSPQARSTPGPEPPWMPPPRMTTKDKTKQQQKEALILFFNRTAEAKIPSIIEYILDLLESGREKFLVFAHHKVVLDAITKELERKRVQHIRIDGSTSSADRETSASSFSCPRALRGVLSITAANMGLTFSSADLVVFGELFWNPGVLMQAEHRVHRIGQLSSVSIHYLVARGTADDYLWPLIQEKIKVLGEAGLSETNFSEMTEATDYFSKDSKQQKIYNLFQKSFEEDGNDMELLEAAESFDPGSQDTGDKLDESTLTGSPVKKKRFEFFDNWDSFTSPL

[2] = target: T2, ADAAD H594A (Bos taurus (bovine), UniProt Q9TTA5 221-940, H814A)
T2 sequence: T1 sequence with H591D, H594A

[3] = target: T3, ADAAD R595K (Bos taurus (bovine), UniProt Q9TTA5 221-940, R815K)
T3 sequence: T1 sequence with H591D, R595K

GCGCAATTGCGCTCGACGATTTTTTAGCGCAATTGCGC (structured_DNA) [slDNA (stem-loop DNA)] was tested, and the Kd [1] was 21.3 ± 7 nM, the Kd [2] was 10.9 ± 2.6 nM and the Kd [3] was 25.1 ± 7.4 nM.
